In patent publication US20050059803A1 (ARIAD GENE THERAPEUTICS, published 2005):

Molecular target: LexA-FKBP12 fusion protein (human FKBP12, bait plasmid pIC504) (human, UniProt P62942 1-104)
Experiment: cell-based or functional assay

Sequence of LexA-FKBP12 fusion protein (human FKBP12, bait plasmid pIC504) (P62942 other isoform, or with tags, fused parts or gaps limits assumed): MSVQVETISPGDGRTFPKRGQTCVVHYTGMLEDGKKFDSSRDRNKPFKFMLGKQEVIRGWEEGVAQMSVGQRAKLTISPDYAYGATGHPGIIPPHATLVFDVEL

B1: human RAPT1 rapamycin-binding domain fused to the VP16 activation domain (other)
chain: VSEELIRVAILWHEMWHEGLEEASRLYFGERNVKGMFEVLEPLHAMMERGPQTLKETSFNQAYGRDLMEAQEWCRKYMKSGNVKDLTQAWDLYYHVFRRISKQLPQLTSLELQYVSPKLLMCRDLELAVPGTYDPNQPIIRIQSIAPSLQVITSKQRPRKLTLMGSNGHEFVF
- β-galactosidase activity (lacZ reporter, chemiluminescent substrate): ~1000 fold
